Each binder was assayed against Rabies virus glycoprotein G, Challenge Virus Standard (CVS)-11 strain (Rabies virus, strain CVS-11 (genotype 1 Lyssavirus)) (UniProt O92284) (assay: cell-based or functional assay).
Chain of Rabies virus glycoprotein G, Challenge Virus Standard (CVS)-11 strain (Rabies virus, strain CVS-11 (genotype 1 Lyssavirus)) (O92284 20-524 limits assumed): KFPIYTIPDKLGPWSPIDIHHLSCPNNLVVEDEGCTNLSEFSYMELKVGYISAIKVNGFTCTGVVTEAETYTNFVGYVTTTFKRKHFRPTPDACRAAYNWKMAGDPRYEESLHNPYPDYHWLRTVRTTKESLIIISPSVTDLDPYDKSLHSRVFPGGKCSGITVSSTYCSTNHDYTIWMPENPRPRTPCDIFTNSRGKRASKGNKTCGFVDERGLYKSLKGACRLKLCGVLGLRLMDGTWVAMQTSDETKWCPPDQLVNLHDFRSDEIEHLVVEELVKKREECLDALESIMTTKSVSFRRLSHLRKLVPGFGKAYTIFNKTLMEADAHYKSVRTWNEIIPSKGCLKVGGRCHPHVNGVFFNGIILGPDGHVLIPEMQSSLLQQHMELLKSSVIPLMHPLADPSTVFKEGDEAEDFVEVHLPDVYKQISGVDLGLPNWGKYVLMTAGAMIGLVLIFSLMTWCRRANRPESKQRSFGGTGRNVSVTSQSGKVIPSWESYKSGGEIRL

Binder	CVS-11 neutralizing antibody titer (RFFIT), IU/mg	CVS-11 neutralizing antibody titer (RFFIT), IU/ml	CVS-11 neutralizing antibody titer (RFFIT), IU/µM	CVS-11 neutralizing antibody titer (RFFIT), nM IC50
LG212F6 (VHH) VHH: EVQLVESGGGLVQPGGSLRLSCAASGFTFGSYDMSWVRQAPGKGSEWVSHINTGGGSTTYADSVKGRFTISRDNAKNTLYLQMSSLKPEDTAVYYCATGLYGGSTDDYWGQGTQVTVSS	114 IU/mg	122 IU/ml	1.71 IU/µM	17.7 nM
LG212B12 (VHH) VHH: EVQLVESGGGLVQPGGSLRLSCAASGFTFGNYDMSWVRQAPGKGPEWVSGINTGGSTLYADSVKGRFTISRDNAKNTLYLQMNSLKSEDTAVYYCAKDLYGSTWYTDYWSQGTQVTVSS	20 IU/mg	31 IU/ml	0.3 IU/µM	101 nM
LG212C12 (VHH) VHH: EVQLVESGGGLVQPGGSLRLSCAASGFTFGSSDMSWVRQAPGKGPEWVSGINSGGGRTLYADSVKGRFTISRDNAKNTLYLQMNSLKSEDTAVYYCATDLYGSSWYTDYWSQGTQVTVSS	308 IU/mg	394 IU/ml	4.6 IU/µM	7.55 nM

Each binder was assayed against Rabies virus glycoprotein G, strain CVS-11 (Challenge Virus Standard-11, ATCC VR 959) (Rabies virus, strain CVS-11) (assay: cell-based or functional assay).

Binder	CVS neutralizing antibody titre (RFFIT): IU/mg	CVS neutralizing antibody titre (RFFIT): IU/ml	CVS neutralizing antibody titre (RFFIT): IU/nM	CVS neutralizing antibody titre (RFFIT): nM IC50	Potency (IU/nM) increase versus monovalent
213-E6 25GS 213-E6 (VHH) EVQLVESGGGLVQAGASLRLSCAASGSTLSRYGVGWFRQAPGKERELVASVDWSGSRTYYADSVKGRFTISRDNAKNTGYLQMNSLKPDDTAVYYCAADSSVVPGIEKYDDWGLGTQVTVSSGGGGSGGGGSGGGGSGGGGSGGGGSEVQLVESGGGLVQAGASLRLSCAASGSTLSRYGVGWFRQAPGKERELVASVDWSGSRTYYADSVKGRFTISRDNAKNTGYLQMNSLKPDDTAVYYCAADSSVVPGIEKYDDWGLGTQVTVSS	300 IU/mg	21 IU/ml	8.29 IU/nM	3.76 nM	6.4 fold
214-F8 15GS 214-F8 (VHH) EVQLVESGGDLVQAGGSLRLSCVASGSTYSINAMGWYRQAPGKLRELVAAFRTGGSTDYADSVKGRFTISRDTAKNTVYLQMNSLKPEDTAVYYCNAEVIYYPYDYWGQGTQVTVSSGGGGSGGGGSGGGGSEVQLVESGGDLVQAGGSLRLSCVASGSTYSINAMGWYRQAPGKLRELVAAFRTGGSTDYADSVKGRFTISRDTAKNTVYLQMNSLKPEDTAVYYCNAEVIYYPYDYWGQGTQVTVSS	650 IU/mg	13 IU/ml	17.2 IU/nM	1.79 nM	63.7 fold
213-E6 5GS 212-C12 (VHH) EVQLVESGGGLVQAGASLRLSCAASGSTLSRYGVGWFRQAPGKERELVASVDWSGSRTYYADSVKGRFTISRDNAKNTGYLQMNSLKPDDTAVYYCAADSSVVPGIEKYDDWGLGTQVTVSSGGGGSEVQLVESGGGLVQPGGSLRLSCAASGFTFGSSDMSWVRQAPGKGPEWVSGINSGGGRTLYADSVKGRFTISRDNAKNTLYLQMNSLKSEDTAVYYCATDLYGSSWYTDYWSQGTQVTVSS	385 IU/mg	385 IU/ml	10 IU/nM	3.21 nM	6.3 fold
213-E6 25GS 212-C12 (VHH) EVQLVESGGGLVQAGASLRLSCAASGSTLSRYGVGWFRQAPGKERELVASVDWSGSRTYYADSVKGRFTISRDNAKNTGYLQMNSLKPDDTAVYYCAADSSVVPGIEKYDDWGLGTQVTVSSGGGGSGGGGSGGGGSGGGGSGGGGSEVQLVESGGGLVQPGGSLRLSCAASGFTFGSSDMSWVRQAPGKGPEWVSGINSGGGRTLYADSVKGRFTISRDNAKNTLYLQMNSLKSEDTAVYYCATDLYGSSWYTDYWSQGTQVTVSS	248 IU/mg	1290 IU/ml	6.7 IU/nM	4.79 nM	4.2 fold
213-E6 25GS 214-E8 (VHH) EVQLVESGGGLVQAGASLRLSCAASGSTLSRYGVGWFRQAPGKERELVASVDWSGSRTYYADSVKGRFTISRDNAKNTGYLQMNSLKPDDTAVYYCAADSSVVPGIEKYDDWGLGTQVTVSSGGGGSGGGGSGGGGSGGGGSGGGGSEVQLVESGGGSVQAGGSLRLSCAASGGTFNPYVMAWFRQAPGNEREFVARIRWSGGDAYYDDSVKGRFAITRDAAKNTVHLQMNSLKPEDTAVYYCAAATYGYGSYTYGGSYDLWGQGTQVTVSS	657 IU/mg	46 IU/ml	1.84 IU/nM	1.68 nM	2.3 fold
213-E6 15GS 213-H7 (VHH) EVQLVESGGGLVQAGASLRLSCAASGSTLSRYGVGWFRQAPGKERELVASVDWSGSRTYYADSVKGRFTISRDNAKNTGYLQMNSLKPDDTAVYYCAADSSVVPGIEKYDDWGLGTQVTVSSGGGGSGGGGSGGGGSEVQLVESGGGLVQAGGSLRLSCAASGRTLSSYRMGWFRQAPGKEREFISTISWNGRSTYYADSVKGRFIFSEDNAKNTVYLQMNSLKPEDTAVYYCAAALIGGYYSDVDAWSYWGPGTQVTVSS	4250 IU/mg	3760 IU/ml	93.7 IU/nM	0.26 nM	107 fold
214-E8 5GS 212-C12 (VHH) EVQLVESGGGSVQAGGSLRLSCAASGGTFNPYVMAWFRQAPGNEREFVARIRWSGGDAYYDDSVKGRFAITRDAAKNTVHLQMNSLKPEDTAVYYCAAATYGYGSYTYGGSYDLWGQGTQVTVSSGGGGSEVQLVESGGGLVQPGGSLRLSCAASGFTFGSSDMSWVRQAPGKGPEWVSGINSGGGRTLYADSVKGRFTISRDNAKNTLYLQMNSLKSEDTAVYYCATDLYGSSWYTDYWSQGTQVTVSS	214 IU/mg	171 IU/ml	5.68 IU/nM	5.65 nM	5.2 fold
214-E8 15GS 212-C12 (VHH) EVQLVESGGGSVQAGGSLRLSCAASGGTFNPYVMAWFRQAPGNEREFVARIRWSGGDAYYDDSVKGRFAITRDAAKNTVHLQMNSLKPEDTAVYYCAAATYGYGSYTYGGSYDLWGQGTQVTVSSGGGGSGGGGSGGGGSEVQLVESGGGLVQPGGSLRLSCAASGFTFGSSDMSWVRQAPGKGPEWVSGINSGGGRTLYADSVKGRFTISRDNAKNTLYLQMNSLKSEDTAVYYCATDLYGSSWYTDYWSQGTQVTVSS	322 IU/mg	998 IU/ml	8.7 IU/nM	3.69 nM	8 fold
214-E8 25GS 212-C12 (VHH) EVQLVESGGGSVQAGGSLRLSCAASGGTFNPYVMAWFRQAPGNEREFVARIRWSGGDAYYDDSVKGRFAITRDAAKNTVHLQMNSLKPEDTAVYYCAAATYGYGSYTYGGSYDLWGQGTQVTVSSGGGGSGGGGSGGGGSGGGGSGGGGSEVQLVESGGGLVQPGGSLRLSCAASGFTFGSSDMSWVRQAPGKGPEWVSGINSGGGRTLYADSVKGRFTISRDNAKNTLYLQMNSLKSEDTAVYYCATDLYGSSWYTDYWSQGTQVTVSS	573 IU/mg	70.5 IU/ml	1.6 IU/nM	1.94 nM	1.5 fold
214-E8 15GS 213-H7 (VHH) EVQLVESGGGSVQAGGSLRLSCAASGGTFNPYVMAWFRQAPGNEREFVARIRWSGGDAYYDDSVKGRFAITRDAAKNTVHLQMNSLKPEDTAVYYCAAATYGYGSYTYGGSYDLWGQGTQVTVSSGGGGSGGGGSGGGGSEVQLVESGGGLVQAGGSLRLSCAASGRTLSSYRMGWFRQAPGKEREFISTISWNGRSTYYADSVKGRFIFSEDNAKNTVYLQMNSLKPEDTAVYYCAAALIGGYYSDVDAWSYWGPGTQVTVSS	8220 IU/mg	1890 IU/ml	230 IU/nM	0.14 nM	605 fold
NB6-18GS-NB6 (VHH) EVQLVESGGGLVQAGGSLRLSCAASGPTFSADTMGWFRQAPGKEREFVATIPWSGGIAYYSDSVKGRFTMSRDNAKNTVDLQMNSLKPEDTALYYCAGSSRIYIYSDSLSERSYDYWGQGTQVTVSSGGGGSGGGGSGGGGGGGSEVQLVESGGGLVQAGGSLRLSCAASGPTFSADTMGWFRQAPGKEREFVATIPWSGGIAYYSDSVKGRFTMSRDNAKNTVDLQMNSLKPEDTALYYCAGSSRIYIYSDSLSERSYDYWGQGTQVTVSSAAAEQKLISEEDLNGAAHHHHHH	< 2.38 IU/mg	< 0.5 IU/ml	< 0.07 IU/nM	> 725 nM	
213-H7 15GS 213-H7 (VHH) EVQLVESGGGLVQAGGSLRLSCAASGRTLSSYRMGWFRQAPGKEREFISTISWNGRSTYYADSVKGRFIFSEDNAKNTVYLQMNSLKPEDTAVYYCAAALIGGYYSDVDAWSYWGPGTQVTVSSGGGGSGGGGSGGGGSEVQLVESGGGLVQAGGSLRLSCAASGRTLSSYRMGWFRQAPGKEREFISTISWNGRSTYYADSVKGRFIFSEDNAKNTVYLQMNSLKPEDTAVYYCAAALIGGYYSDVDAWSYWGPGTQVTVSS	549 IU/mg	412 IU/ml	15.4 IU/nM	2.09 nM	34.2 fold

— patent US20200123233A1
